Data set [1] concerns the molecule itself. Briefly: SEC-MALS; 100 μl of purified protein injected at 2 mg/ml (low concentration); Superdex 200 10/300 GL, room temperature, 10 mM HEPES pH 7.4, 200 mM NaCl, 5 mM β-ME, 0.4 ml/min. For orientation: In gel filtration, larger molecules generally elute earlier.
Data set [2] concerns the target β subunit of human NAD-dependent isocitrate dehydrogenase (human). The experiment in a line: SDS-PAGE of the co-purified complex; subunits co-expressed in E. coli, purified as a complex by the His6 tag of β or γ (Ni-NTA, TEV cleavage, second Ni-NTA, gel filtration); 12% SDS-PAGE with Coomassie blue staining, intensity of the two bands. The note with it: both partners purified.

Data set [3] has as its target T1, γ subunit of human NAD-dependent isocitrate dehydrogenase (human, UniProt P51553 40-393).
T1 construct: γ subunit of human NAD-IDH (IDH3G); the N-terminal 39 residues (mitochondrial signal peptide) were removed during construction; a TEV protease site stood between the subunit and the His6 tag; residues of the site may remain after cleavage; also called IDH3G; regulatory subunit; not shown: His6, C-terminal, cleaved
T1 sequence (looked up): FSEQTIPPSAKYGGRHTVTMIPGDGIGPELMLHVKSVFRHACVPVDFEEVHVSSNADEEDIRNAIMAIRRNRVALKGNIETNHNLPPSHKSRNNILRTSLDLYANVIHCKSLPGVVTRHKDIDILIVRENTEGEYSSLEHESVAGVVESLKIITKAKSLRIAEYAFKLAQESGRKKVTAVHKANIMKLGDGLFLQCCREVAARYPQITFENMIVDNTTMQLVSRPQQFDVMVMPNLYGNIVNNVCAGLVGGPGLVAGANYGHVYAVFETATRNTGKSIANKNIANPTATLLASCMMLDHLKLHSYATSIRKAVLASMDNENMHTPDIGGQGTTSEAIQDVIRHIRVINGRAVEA
The description is as above. The note with it: both partners purified.

Numbering of substitutions follows the chain as printed. Names may count otherwise.

Chain of β subunit of human NAD-dependent isocitrate dehydrogenase (human) (chain, as listed by the source): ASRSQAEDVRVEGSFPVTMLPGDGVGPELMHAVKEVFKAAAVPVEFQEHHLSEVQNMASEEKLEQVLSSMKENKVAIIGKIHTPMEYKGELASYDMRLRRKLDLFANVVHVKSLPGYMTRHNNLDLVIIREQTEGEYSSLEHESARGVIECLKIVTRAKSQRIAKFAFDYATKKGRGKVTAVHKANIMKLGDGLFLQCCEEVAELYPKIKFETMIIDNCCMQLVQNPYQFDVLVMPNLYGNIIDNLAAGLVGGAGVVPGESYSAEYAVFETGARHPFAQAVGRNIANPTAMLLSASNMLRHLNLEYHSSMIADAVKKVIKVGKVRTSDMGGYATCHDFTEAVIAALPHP

B1: mutant α_(Y126F)βαγ heterotetramer of human NAD-dependent isocitrate dehydrogenase (complex)
chain 1: TGGVQTVTLIPGDGIGPEISAAVMKIFDAAKAPIQWEERNVTAIQGPGGKWMIPSEAKESMDKNKMGLKGPLKTPIAAGHPSMNLLLRKTFDLYANVRPCVSIEGYKTPYTDVNIVTIRENTEGEFSGIEHVIVDGVVQSIKLITEGASKRIAEFAFEYARNNHRSNVTAVHKANIMRMSDGLFLQKCREVAESCKDIKFNEMYLDTVCLNMVQDPSQFDVLVMPNLYGDILSDLCAGLIGGLGVTPSGNIGANGVAIFESVHGTAPDIAGKDMANPTALLLSAVMMLRHMGLFDHAARIEAACFATIKDGKSLTKDLGGNAKCSDFTEEICRRVKDLD
chain 2: not shown
chain 3: B1 chain 1 with F126Y
chain 4: T1 sequence (looked up)
For B1, the “stoichiometry N” value in data set [1] was 2.

B2: mutant αβα_(Y126F)γ heterotetramer of human NAD-dependent isocitrate dehydrogenase (complex)
chain 1: B1 chain 1 with F126Y
chain 2: not shown
chain 3: B1 chain 1
chain 4: T1 sequence (looked up)
B2: the “stoichiometry N” value in data set [1] is 2.

B3: α subunit of human NAD-dependent isocitrate dehydrogenase (natural protein, UniProt P50213 28-366, looked up)
chain: B1 chain 1 with F126Y
notes: α subunit of human NAD-IDH (IDH3A); the N-terminal 27 residues (mitochondrial signal peptide) were removed during construction; cloned in the co-expression vector pQlinkN; gene bought from FulenGen in pReceiver-B01/B02; also called IDH3A; catalytic subunit
In the case of B3, the “stoichiometry N” value in data set [2] and in data set [3] was 1 each time.

Usually stoichiometry N stands for the number of molecules, sites or subunits per partner or assembly.

The values are drawn from publication PMC5282582.
